Reference: patent US20130178394A1 (UNIVERSITY OF TOKYO, published 2013)
Bridge positions count the residues as written; N and C are the ends. Square brackets hold non-standard residues; d marks the D form. NMeF = CN[C@@H](Cc1ccccc1)C(=O)O; NMeS = CN[C@@H](CO)C(=O)O; Sar = CNCC(=O)O

Molecular target: T1, biotinylated Avi-His-GB1-E6AP-HECT domain (human, UniProt P06654 228-282; Q05086 495-852, limits assumed, biotin on the Avi tag)
T1 construct: domain: Protein GB1 domain;domain: HECT domain; also called C terminal domain of ubiquitin ligase E6AP
T1 sequence (P06654 228-282, tags or fused parts left off): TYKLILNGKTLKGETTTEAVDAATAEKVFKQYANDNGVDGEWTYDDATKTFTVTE
Experiment: SPR, BIACORE T100, Avi-His-GB1-E6AP-HECT on streptavidin chip, peptide as analyte
Procedure: The binding constant of MCP11 to E6AP-HECT was analyzed by a surface plasmon resonance using BIACORE T100.
A streptavidin sensor chip (SA chip certified) was used as a sensor chip, an Avi-His-GB1-E6AP-HECT was used as a ligand, and MCP11 was used as an analyte.

B1: MCP11, Cyclo(-Ac-DWCDVMeSGRMeFMeGYMeFPC)G-OH (chemically synthesized cyclic N-methyl peptide) (peptide)
peptide: {CH2CO}-[dW]CDV[NMeS]GR[NMeF][Sar]Y[NMeF]PCG-OH
modifications: thioether N-13
notes: The formula stands in the summary (h-0009)
  Kd: 500 pM
